Measured values reported in article PMC11117311.

B1: Keratin 18 (K18): S30A (protein)
parent chain: MSFTTRSTFSTNYRSLGSVQAPSYGARPVSSAASVYAGAGGSGSRISVSRSTSFRGGMGSGGLATGIAGGLAGMGGIQNEKETMQSLNDRLASYLDRVRSLETENRRLESKIREHLEKKGPQVRDWSHYFKIIEDLRAQIFANTVDNARIVLQIDNARLAADDFRVKYETELAMRQSVENDIHGLRKVIDDTNITRLQLETEIEALKEELLFMKKNHEEEVKGLQAQIASSGLTVEVDAPKSQDLAKIMADIRAQYDELARKNREELDKYWSQQIEESTTVVTTQSAEVGAAETTLTELRRTVQSLEIDLDSMRNLKASLENSLREVEARYALQMEQLNGILLHLESELAQTRAEGQRQAQEYEALLNIKVKLEAEIATYRRLLEDGEDFNLGDALDSSNSMQTIQKTTTRRIVDGKVVSETNDTKVLRH
B2: Keratin 18 (K18): 5S (Ac45SGlcNAc) (protein)
parent chain: B1 parent chain

Key:
[1] = immunofluorescence, RBE cells; settings: glycan lost; control: FLAG-K18WT
[2] = CHX chase 8 h, FLAG-K18 remaining by blot; settings: glycan lost; control: FLAG-K18-WT
[3] = [U-13C6] glucose tracing, LC-MS/MS, HuCCT1; settings: glycan lost; control: shK18 + WT
[4] = HA-ubiquitin, MG-132, anti-FLAG IP, anti-HA blot; settings: glycan lost; control: FLAG-K18-WT
[5] = CHX chase up to 8 h, K18 remaining by blot; settings: glycan lost; control: DMSO

| Protein | other: filament organisation [1] | degradation_or_half_life [2] | other: TCA cycle metabolite levels [3] | other: ubiquitination [4] | degradation_or_half_life [5] |
| --- | --- | --- | --- | --- | --- |
| B1 | changes | decreases | changes | increases | – |
| B2 | – | – | – | – | decreases |
